Reference: the supplement of paper PMC10724198
± gives the standard deviation of the averaged measurements.

System: Saccharomyces cerevisiae
Assay: protein stability index of tFT-peptide fusion (C-terminal peptide) (PSI (0-1 scale)); higher = more stable (slower turnover)
Conditions: genetic background: wild type; temperature: 30 C
Method: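 Multiplexed protein stability (MPS) profiling in S. cerevisiae. Random 12-aa peptides (tFT-X12 library) are fused to the C-terminus of a sfGFP-mCherry tandem fluorescent timer, after mCherry and a GGGS linker. Cells are FACS-sorted into 8 mCherry/sfGFP bins and deep-sequenced. The protein stability index (PSI) is the read-weighted bin average, scaled from 0 (unstable) to 1 (stable). Only peptides with >10 reads are reported; cells were grown at 30 °C in SC-His with glucose.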
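Also: PSI is a weighted mean of sequencing reads over stability bins, variants kept only with over 10 reads, mCherry proximal and sfGFP distal, peptide attached via GGGS linker.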

| Sequence | protein stability index |
| --- | --- |
| FSLPPAASDFPS | 0.685 ± 0.015 |
| FSLPSVPCATYR | 0.678 ± 0.043 |
| FSSRLVFFFAAP | 0.667 ± 0.036 |
| FSSSMFPPPLFV | 0.662 ± 0.0056 |
| FSTTSFPPSFFP | 0.711 ± 0.042 |
| FSVLSPHPLHPL | 0.753 ± 0.093 |
| FSVPRFVSISGI | 0.6 ± 0.034 |
| FSVVGVFNIYGM | 0.6214 ± 0.0023 |
| FTGACRCLDGPR | 0.669 ± 0.055 |
| FTLLLFVPSLGS | 0.618 ± 0.0082 |
| FTPSSLRGSLLA | 0.687 ± 0.021 |
| FTQDYRRKTMSH | 0.604 ± 0.064 |
| FTYFLPPPALCS | 0.521 ± 0.02 |
| FVEIRGGGDRRM | 0.706 ± 0.013 |
| FVFPFHSRGVSQ | 0.647 ± 0.015 |
| FVGACCGGSVEG | 0.721 ± 0.036 |
| FVGFVFSSAVGL | 0.684 ± 0.011 |
| FVHEHQPRHEST | 0.677 ± 0.028 |
| FVIPLLRWGRTP | 0.663 ± 0.053 |
| FVPSSVFLFCLG | 0.545 ± 0.023 |
| FVRWGWAVMLGG | 0.571 ± 0.013 |
| FVVRGVFVSGFW | 0.582 ± 0.019 |
| FWIRGVTRCVWC | 0.724 ± 0.053 |
| FWPPLTNLCTLL | 0.687 ± 0.011 |
| FWVESGVFFFRP | 0.667 ± 0.017 |

| Sequence | protein stability index |
| --- | --- |
| FYRTRQSASPNV | 0.688 ± 0.046 |
| GAARGWLPGAGW | 0.727 ± 0.04 |
| GADGGLVSLGVS | 0.743 ± 0.026 |
| GAECVSGWGGET | 0.709 ± 0.035 |
| GAFFPGPVLFLT | 0.517 ± 0.013 |
| GAFLPLTCDIIC | 0.598 ± 0.013 |
| GAGASEGEPMED | 0.7 ± 0.046 |
| GAGCRDSSRRRT | 0.687 ± 0.037 |
| GAGGAGAGAGGG | 0.639 ± 0.0092 |
| GAGRYVLNPCCS | 0.678 ± 0.034 |
| GAGVCEQGLALA | 0.649 ± 0.091 |
| GAHRRDTYTVIG | 0.682 ± 0.011 |
| GAIVLMSCRNVI | 0.634 ± 0.04 |
| GAKGRGKERRGK | 0.666 ± 0.051 |
| GAKQSSKRPRAS | 0.719 ± 0.028 |
| GALEMNVCVPWL | 0.65 ± 0.017 |
| GALFRRACSLLF | 0.697 ± 0.039 |
| GALGGDSGKGGG | 0.677 ± 0.15 |
| GALSDSLRVYTP | 0.688 ± 0.041 |
| GAPLFTYVIVRR | 0.621 ± 0.07 |
| GAPTYTGEPRTP | 0.742 ± 0.032 |
| GAPWPLAVVAGP | 0.5995 ± 0.0013 |
| GASGRKPGCDRL | 0.67 ± 0.062 |
| GASLFSEVMARE | 0.688 ± 0.027 |
| GASPTNSPLIYT | 0.679 ± 0.0077 |

| Sequence | protein stability index |
| --- | --- |
| GASSPVEVGAAG | 0.695 ± 0.022 |
| GASVSCQWFCGA | 0.694 ± 0.015 |
| GATLWGMAWGAR | 0.682 ± 0.012 |
| GAVGSPVEFGGR | 0.688 ± 0.063 |
| GAVQGVALRGGS | 0.744 ± 0.1 |
| GAVRWGGAGVGV | 0.73 ± 0.063 |
| GAWWVHGRRVGR | 0.738 ± 0.046 |
| GAYKVPSYGINY | 0.695 ± 0.021 |
| GCAFVVLLSRGF | 0.604 ± 0.083 |
| GCCAPWTFDDDL | 0.7117 ± 0.0065 |
| GCFYYWSVNVSY | 0.5599 ± 0.0036 |
| GCGAGEVWGVGG | 0.674 ± 0.014 |
| GCGGRARAGAGG | 0.697 ± 0.089 |
| GCGGSREAVVNG | 0.662 ± 0.042 |
| GCGLVGGRWFRW | 0.67 ± 0.034 |
| GCIGGMAPWGGL | 0.664 ± 0.0097 |
| GCIPFELLECGF | 0.663 ± 0.071 |
| GCLGVRMFRVGG | 0.59 ± 0.015 |
| GCMVFTGGKRVL | 0.672 ± 0.03 |
| GCPIYSIIQIHR | 0.66818 ± 0.00019 |
| GCRGVVVDGCGW | 0.593 ± 0.0073 |
| GCRGVWGWVGRG | 0.74 ± 0.084 |
| GCSFVLCRGSNA | 0.675 ± 0.034 |
| GCSNESVGVISG | 0.644 ± 0.024 |
| GCVGGGDWRFNV | 0.566 ± 0.027 |

| Sequence | protein stability index |
| --- | --- |
| GCVHDLGVISCQ | 0.639 ± 0.011 |
| GCVVSGCGAGVV | 0.5755 ± 0.0057 |
| GCWAFGWLLQYS | 0.574 ± 0.014 |
| GDERGAGRVGGS | 0.626 ± 0.0064 |
| GDGVIVEVEGVN | 0.675 ± 0.071 |
| GDLKWVGLGVQR | 0.687 ± 0.03 |
| GDMVRVSYRGRR | 0.674 ± 0.053 |
| GDPVKCSNSKDK | 0.685 ± 0.012 |
| GDSPLQAPPSLL | 0.708 ± 0.1 |
| GDVGGLFYVSLL | 0.7569 ± 0.0027 |
| GDVSYRWLRACT | 0.6576 ± 0.00085 |
| GDWQGRADGAVI | 0.671 ± 0.071 |
| GEAGGEESEEGY | 0.676 ± 0.042 |
| GECAELSSVGGG | 0.664 ± 0.035 |
| GEGGENRRNGTV | 0.7 ± 0.12 |
| GEGHVRCCFSLR | 0.699 ± 0.013 |
| GEGRGDGEEGTG | 0.679 ± 0.035 |
| GEISLSGRYRAV | 0.691 ± 0.032 |
| GEKDGAVGRGEV | 0.614 ± 0.02 |
| GERAGGPGRGRE | 0.683 ± 0.069 |
| GERGAYVVGVRW | 0.782 ± 0.019 |
| GEVGRGGEWGLD | 0.711 ± 0.077 |
| GEVSSIVHIGPK | 0.684 ± 0.03 |
| GEWCGGVAVFWR | 0.693 ± 0.028 |
| GEWIDVSGCRRG | 0.805 ± 0.28 |

| Sequence | protein stability index |
| --- | --- |
| GEYRECVSWAGG | 0.721 ± 0.07 |
| GFALSFCFCFPL | 0.558 ± 0.029 |
| GFDVGKRGRFGL | 0.635 ± 0.09 |
| GFFFALGPPFSG | 0.695 ± 0.019 |
| GFGFWRNLFYWS | 0.657 ± 0.048 |
| GFKIEVIQASGS | 0.683 ± 0.025 |
| GFPASVCGCMLW | 0.651 ± 0.047 |
| GFRCTVWGRAVI | 0.637 ± 0.052 |
| GFSDCGLYRVSC | 0.713 ± 0.0097 |
| GFSRLTPDQRQK | 0.7373 ± 0.0063 |
| GFTGWGRRGLGG | 0.716 ± 0.076 |
| GFTQLQNERVDG | 0.785 ± 0.1 |
| GFVVGVGIVSWG | 0.6108 ± 0.0029 |
| GFWWGCGGFCFC | 0.685 ± 0.023 |
| GFYAWAISYLWQ | 0.509 ± 0.0086 |
| GGAGHGAGAVWG | 0.71 ± 0.037 |
| GGALNGVGNGEL | 0.67 ± 0.053 |
| GGARGLLRGLLG | 0.755 ± 0.085 |
| GGCDVCGVQWIG | 0.73 ± 0.054 |
| GGCGAKWLSGGG | 0.64 ± 0.025 |
| GGCSGGNGGCDG | 0.678 ± 0.028 |
| GGDDKREPGGAR | 0.6603 ± 0.0025 |
| GGDFYEGVKNGK | 0.714 ± 0.11 |
| GGELVKGWGSRV | 0.678 ± 0.072 |
| GGETGGRWHKKQ | 0.672 ± 0.069 |

| Sequence | protein stability index |
| --- | --- |
| GGEWGDRRKSGV | 0.647 ± 0.059 |
| GGFCRLRYLVCP | 0.544 ± 0.039 |
| GGFTAPLVLSPR | 0.686 ± 0.071 |
| GGGAADGGGGRG | 0.646 ± 0.059 |
| GGGAGERMRDGR | 0.67 ± 0.026 |
| GGGARSPSGCAN | 0.712 ± 0.019 |
| GGGERFGLGGRM | 0.659 ± 0.049 |
| GGGFVGGTVAAV | 0.725 ± 0.011 |
| GGGGAAGWGAVG | 0.688 ± 0.015 |
| GGGGALGRVWPG | 0.685 ± 0.02 |
| GGGGAVRAWGLR | 0.736 ± 0.019 |
| GGGGEAWGGLRW | 0.775 ± 0.055 |
| GGGGERGGVKRG | 0.663 ± 0.02 |
| GGGGGASMSGTP | 0.687 ± 0.017 |
| GGGGGCGVAGGV | 0.71 ± 0.026 |
| GGGGGFAPGVTG | 0.698 ± 0.046 |
| GGGGGFGVVRVG | 0.651 ± 0.032 |
| GGGGGGFRVVVG | 0.705 ± 0.03 |
| GGGGGGGEWVGG | 0.656 ± 0.05 |
| GGGGGGGGGGGG | 0.65 ± 0.04 |
| GGGGGGGGRRPG | 0.616 ± 0.0097 |
| GGGGGGGGSSCA | 0.685 ± 0.067 |
| GGGGGGGGVVVR | 0.686 ± 0.016 |
| GGGGGGLVGQGD | 0.673 ± 0.017 |
| GGGGGGWGGGVG | 0.665 ± 0.021 |

| Sequence | protein stability index |
| --- | --- |
| GGGGGNAGSHLG | 0.673 ± 0.018 |
| GGGGGRGGVVVR | 0.682 ± 0.014 |
| GGGGGRSSPGGS | 0.678 ± 0.073 |
| GGGGGWGGAGGV | 0.737 ± 0.048 |
| GGGGLKVVGGGS | 0.661 ± 0.032 |
| GGGGVGSSGARV | 0.644 ± 0.068 |
| GGGGVGTGCQRR | 0.668 ± 0.037 |
| GGGGVLGVVRVG | 0.62 ± 0.033 |
| GGGGVWVSWCGW | 0.679 ± 0.013 |
| GGGHGGVGGGMG | 0.612 ± 0.057 |
| GGGLSRVEGFGP | 0.6681 ± 0.0038 |
| GGGLVGVEGGWG | 0.6732 ± 0.0057 |
| GGGPGGWGGRGR | 0.6449 ± 0.0052 |
| GGGPGRCAGGGR | 0.669 ± 0.024 |
| GGGRGEVEGHSG | 0.709 ± 0.013 |
| GGGRSASGGWGC | 0.698 ± 0.024 |
| GGGSGGREPGGS | 0.726 ± 0.027 |
| GGGSGKSGNLYS | 0.687 ± 0.06 |
| GGGVGGGGVEYG | 0.638 ± 0.067 |
| GGGVGGGRAWWR | 0.699 ± 0.037 |
| GGGVGGWGTWVV | 0.715 ± 0.1 |
| GGGVGRGGVEYG | 0.609 ± 0.01 |
| GGGVPGGLGREG | 0.677 ± 0.043 |
| GGGVTRMQQRNG | 0.6774 ± 0.002 |
| GGGVWGGVFFRL | 0.647 ± 0.014 |

| Sequence | protein stability index |
| --- | --- |
| GGGVWWGGWGHW | 0.73 ± 0.061 |
| GGGWGERGRGGS | 0.729 ± 0.037 |
| GGIGYRRQAAQA | 0.673 ± 0.068 |
| GGKEEGAGRRGV | 0.69 ± 0.059 |
| GGKREGEACRQE | 0.662 ± 0.13 |
| GGLSELGSGIKC | 0.673 ± 0.0083 |
| GGLVPPLEGLVR | 0.677 ± 0.037 |
| GGLWPWGRVVCW | 0.687 ± 0.078 |
| GGMWGVGRGSVG | 0.657 ± 0.068 |
| GGPSLLEGGAWA | 0.6436 ± 0.0023 |
| GGREWWLSDGTV | 0.75 ± 0.033 |
| GGRGGGGEMGGR | 0.651 ± 0.04 |
| GGRGRGGEMGGR | 0.722 ± 0.033 |
| GGRGVEVAGKGW | 0.686 ± 0.08 |
| GGRGWVGEMGGR | 0.784 ± 0.053 |
| GGRIITIWNRKM | 0.578 ± 0.069 |
| GGRRHQRARLPL | 0.605 ± 0.018 |
| GGRRRPVPQGPR | 0.649 ± 0.091 |
| GGSGGLGEQGHR | 0.76 ± 0.051 |
| GGSGHGAGAVWG | 0.6979 ± 0.0057 |
| GGSGVHRHRPFG | 0.666 ± 0.055 |
